4 molecules from US20190241657A1 (Sanofi, published 2019) can be followed below.

The target of test [1] is T1, CD123 on THP-1 target cells (UniProt P26951 19-378). The experiment in a line: cell-based or functional assay.
The target of test [2] is T1, CD123 on THP-1 target cells. In words: cell-based or functional assay. This is another data set of the same source.
Test [3] shares this target. The experiment in a line: cell-based or functional assay. This is another data set of the same source.
Test [4] deals with T2, mature human CD123 His-II tagged Fc-fusion protein (human).
T2 construct: also called huCD123; CD123-Fc-His
T2 sequence (chain, as listed by the source limits assumed): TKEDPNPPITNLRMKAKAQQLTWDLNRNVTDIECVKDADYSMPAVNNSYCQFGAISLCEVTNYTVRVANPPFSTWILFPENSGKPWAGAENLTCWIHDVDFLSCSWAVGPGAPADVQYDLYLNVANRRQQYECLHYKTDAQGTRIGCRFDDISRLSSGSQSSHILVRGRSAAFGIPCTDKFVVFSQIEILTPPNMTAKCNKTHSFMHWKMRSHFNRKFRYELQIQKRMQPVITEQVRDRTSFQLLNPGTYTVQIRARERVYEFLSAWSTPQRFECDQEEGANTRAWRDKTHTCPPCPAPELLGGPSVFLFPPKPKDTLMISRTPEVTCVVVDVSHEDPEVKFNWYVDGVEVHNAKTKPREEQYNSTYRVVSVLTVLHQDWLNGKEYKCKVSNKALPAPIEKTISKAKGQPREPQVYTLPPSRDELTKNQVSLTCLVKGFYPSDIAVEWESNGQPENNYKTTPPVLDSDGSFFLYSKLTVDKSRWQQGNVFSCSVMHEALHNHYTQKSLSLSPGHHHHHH
The experiment in a line: Biacore. The protocol:
Cytotoxic effects of the CODV-Fab-TL1-RF “hz20G6×hz7G3”, CODV-Fab-OL1 “hz20G6×hz7G3” and the single chain DART MGD006 were assessed. Affinities to the CD3ε/δ-complex and CD123 of each bispecific construct were measured by Biacore. Furthermore, a cytotoxic assay was performed as described in 2.8 (table 3).
Binding affinities of CODV antibody-like binding proteins to human CD3ε/δ and human CD123 were measured by surface plasmon resonance (SPR) using a Biacore3000 or Biacore T200 instrument (GE Healthcare) with HBS-EP (GE Healthcare) as assay buffer). Capture of CD3ε/δ-Fc or CD123-Fc-His fusion proteins was achieved using the His capture kit (GE Healthcare). The capture antibody was coupled to CM5 chips (GE Healthcare) to approx. 12.000 RU using the amine coupling kit (BR-100-50, GE Healthcare). The CD3εδ-Fc or CD123-Fc-His fusion proteins were captured at 10 μl/min to yield Rmax values of 30 RU. Binding kinetics with the CODV antibody-like binding proteins was measured at 30 μl/min Twofold dilutions of CODV antibody-like binding proteins from 3 to 200 nM in assay buffer were used. All Fab concentrations were run in duplicate together with duplicate buffer blanks for double referencing. Regeneration of the capture surface was performed with a 1 min injection of 10 mM Glycine pH1.5 at 30 μl/min. For data analysis the BIAevaluation software (GE Healthcare) was used. […]

For test [5], the target named is T1, CD123 on THP-1 target cells. The experiment in a line: cell-based or functional assay. The source holds these as a separate data set.
The target is the same in test [6]. In words: cell-based or functional assay. This is another data set of the same source.
The target is the same in test [7]. In words: cell-based or functional assay. This is another data set of the same source.
Test [8] has as its target T2, mature human CD123 His-II tagged …. The experiment in a line: SPR (Biacore), CD123-Fc-His captured with His capture kit, CODV as analyte, 1:1 Langmuir with mass transfer. The protocol: Binding affinities of CODV antibody-like binding proteins to human CD3ε/δ and human CD123 were measured by surface plasmon resonance (SPR) using a Biacore3000 or Biacore T200 instrument (GE Healthcare) with HBS-EP (GE Healthcare) as assay buffer). Capture of CD3ε/δ-Fc or CD123-Fc-His fusion proteins was achieved using the His capture kit (GE Healthcare). The capture antibody was coupled to CM5 chips (GE Healthcare) to approx. 12.000 RU using the amine coupling kit (BR-100-50, GE Healthcare). The CD3εδ-Fc or CD123-Fc-His fusion proteins were captured at 10 μl/min to yield Rmax values of 30 RU. Binding kinetics with the CODV antibody-like binding proteins was measured at 30 μl/min Twofold dilutions of CODV antibody-like binding proteins from 3 to 200 nM in assay buffer were used. All Fab concentrations were run in duplicate together with duplicate buffer blanks for double referencing. Regeneration of the capture surface was performed with a 1 min injection of 10 mM Glycine pH1.5 at 30 μl/min. For data analysis the BIAevaluation software (GE Healthcare) was used. Data were fit globally using a 1:1 Langmuir model with mass transfer.

Test [9] concerns the target T1, CD123 on THP-1 target cells. In words: cell-based or functional assay. This is another data set of the same source.

Positions count from the first letter of the chain named.

T1 sequence (P26951 19-378): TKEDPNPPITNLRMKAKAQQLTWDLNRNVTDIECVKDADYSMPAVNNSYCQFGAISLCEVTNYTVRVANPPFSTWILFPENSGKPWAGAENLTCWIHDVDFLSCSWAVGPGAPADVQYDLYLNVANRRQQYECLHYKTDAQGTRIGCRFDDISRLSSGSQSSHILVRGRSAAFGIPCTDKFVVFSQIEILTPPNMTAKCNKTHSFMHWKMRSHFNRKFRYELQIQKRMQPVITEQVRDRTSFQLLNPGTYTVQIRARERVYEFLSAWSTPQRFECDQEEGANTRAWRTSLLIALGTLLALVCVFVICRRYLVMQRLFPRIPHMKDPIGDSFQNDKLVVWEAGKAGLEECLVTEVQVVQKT

B1: Single chain antibody DART format MGD006 (CD123xCD3 bi-specific diabody) (bispecific antibody)
chain 1: QAVVTQEPSLTVSPGGTVTLTCRSSTGAVTTSNYANWVQQKPGQAPRGLIGGTNKRAPWTPARFSGSLLGGKAALTITGAQAEDEADYYCALWYSNLWVFGGGTKLTVLGGGGSGGGGEVQLVQSGAELKKPGASVKVSCKASGYTFTDYYMKWVRQAPGQGLEWIGDIIPSNGATFYNQKFKGRVTITVDKSTSTAYMELSSLRSEDTAVYYCARSHLLRASWFAYWGQGTLVTVSSGGCGGGEVAALEKEVAALEKEVAALEKEVAALEK
chain 2: DFVMTQSPDSLAVSLGERVTMSCKSSQSLLNSGNQKNYLTWYQQKPGQPPKLLIYWASTRESGVPDRFSGSGSGTDFTLTISSLQAEDVAVYYCQNDYSYPYTFGQGTKLEIKGGGSGGGGEVQLVESGGGLVQPGGSLRLSCAASGFTFSTYAMNWVRQAPGKGLEWVGRIRSKYNNYATYYADSVKDRFTISRDDSKNSLYLQMNSLKTEDTAVYYCVRHGNFGNSYVSWFAYWGQGTLVTVSSGGCGGGKVAALKEKVAALKEKVAALKEKVAALKE
notes: The two chains are covalently bonded to one another by a disulfide bond; also called single chain DART; CD123xCD3 bispecific DART
With B1, in [1], the “T cell activation with THP-1 target cells, CD4+ T cells (% CD69+ cells) EC50” value came out at 0.001 nM and the “T cell activation with THP-1 target cells, CD8+ T cells (% CD69+ cells) EC50” value was 0.0035 nM. In test [2], the “Jurkat-NFAT-Luc reporter cell activation with THP1 cells, EC50” value was found to be 0.37 nM. Besides, the “Cytotoxic assay (THP cells) EC50” value in test [3] worked out at 0.0003 nM. The molecule also had a Kd in [4] of 0.2 nM.

B2: CODV-Fab-TL1-Knob-RFxhole "hz20G6xhz7G3" antibody-like binding protein (bispecific antibody, human IgG1, kappa, L234A L235A)
light: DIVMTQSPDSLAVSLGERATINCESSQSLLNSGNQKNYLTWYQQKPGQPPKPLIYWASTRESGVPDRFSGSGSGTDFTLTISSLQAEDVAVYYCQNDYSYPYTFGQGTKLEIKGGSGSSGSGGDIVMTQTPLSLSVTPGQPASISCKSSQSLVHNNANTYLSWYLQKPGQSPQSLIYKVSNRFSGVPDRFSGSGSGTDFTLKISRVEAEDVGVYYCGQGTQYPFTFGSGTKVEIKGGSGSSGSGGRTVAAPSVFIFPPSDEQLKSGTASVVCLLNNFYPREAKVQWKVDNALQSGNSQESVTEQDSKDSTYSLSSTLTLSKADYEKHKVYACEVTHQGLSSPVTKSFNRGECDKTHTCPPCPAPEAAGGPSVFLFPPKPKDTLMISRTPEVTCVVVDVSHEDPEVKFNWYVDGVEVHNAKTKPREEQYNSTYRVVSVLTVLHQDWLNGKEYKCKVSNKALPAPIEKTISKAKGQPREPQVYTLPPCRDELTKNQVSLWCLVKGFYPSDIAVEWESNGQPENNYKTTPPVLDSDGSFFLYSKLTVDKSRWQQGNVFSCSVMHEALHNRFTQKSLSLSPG
heavy: QVQLVESGGGVVQPGRSLRLSCAASGFTFTKAWMHWVRQAPGKQLEWVAQIKDKSNSYATYYADSVKGRFTISRDDSKNTLYLQMNSLRAEDTAVYYCRGVYYALSPFDYWGQGTLVTVSSEVQLVQSGAEVKKPGESLKISCKGSGYSFTDYYMKWARQMPGKGLEWMGDIIPSSGATFYNQKFKGQVTISADKSISTTYLQWSSLKASDTAMYYCARSHLLRASWFAYWGQGTMVTVSSASTKGPSVFPLAPSSKSTSGGTAALGCLVKDYFPEPVTVSWNSGALTSGVHTFPAVLQSSGLYSLSSVVTVPSSSLGTQTYICNVNHKPSNTKVDKKVEPKSCDKTHTCPPCPAPEAAGGPSVFLFPPKPKDTLMISRTPEVTCVVVDVSHEDPEVKFNWYVDGVEVHNAKTKPREEQYNSTYRVVSVLTVLHQDWLNGKEYKCKVSNKALPAPIEKTISKAKGQPREPQVCTLPPSRDELTKNQVSLSCAVKGFYPSDIAVEWESNGQPENNYKTTPPVLDSDGSFFLVSKLTVDKSRWQQGNVFSCSVMHEALHNHYTQKSLSLSPG
notes: CODV-Fab-TL format; IgG1 backbone with LALA mutation
B2: the “Activity - CD4+/CD69+ % Activation C = 100 nM Mean (with THP-1 target cells)” value in test [5] stood at 63%. The “flow cytometry based cytotoxic assay, EC50 (pM) GMean” value (“flow cytometry based cytotoxic assay” for short) in test [6] was 0.8 pM. Further, in [7], the “Activity - CD8+/CD69+ % Activation C = 100 nM Mean (with THP-1 target cells)” value is 68%. In test [8], this molecule returned a Kd of 0.215 nM, a koff of 0.000102 s⁻¹ and a kon of 474000 M⁻¹ s⁻¹. In addition, in [9], the “T-cell Activation with THP-1 target cells, CD4+/CD69+ EC50 (pM) GMean” value (shortened to “T-cell Activation … CD4+/CD69+ EC50 (pM) GMean”) came to 0.7 pM and the “T-cell Activation with THP-1 target cells, CD8+/CD69+ EC50 (pM) GMean” value (from here on “T-cell Activation … CD8+/CD69+ EC50 (pM) GMean”) is 1.2 pM.

B3: CODV-Fab-TL1-Knobxhole-RF "hz20G6xhz7G3" antibody-like binding protein (bispecific antibody, human IgG1, kappa, L234A L235A)
light: not shown
heavy: B2 heavy with H559R, Y560F
notes: as for B2
With B3, in test [5], the “Activity - CD4+/CD69+ % Activation C = 100 nM Mean (with THP-1 target cells)” value was 64%. For the same molecule, the “flow cytometry based cytotoxic assay” value in test [6] turned out to be 1.1 pM. Also, the “Activity - CD8+/CD69+ % Activation C = 100 nM Mean (with THP-1 target cells)” value in test [7] was found to be 70%. In test [8], this molecule gave a dissociation constant Kd of 0.193 nM, a koff of 8.42e-05 s⁻¹ and an on-rate constant (kon) of 437000 M⁻¹ s⁻¹. Also, in test [9], the “T-cell Activation … CD4+/CD69+ EC50 (pM) GMean” value came out at 0.9 pM and the “T-cell Activation … CD8+/CD69+ EC50 (pM) GMean” value came to 1.6 pM.

B4: CODV-Fab-TL1-RF "hz20G6xhz7G3" antibody-like binding protein (bispecific antibody, human IgG1, kappa, L234A L235A)
light: DIVMTQSPDSLAVSLGERATINCESSQSLLNSGNQKNYLTWYQQKPGQPPKPLIYWASTRESGVPDRFSGSGSGTDFTLTISSLQAEDVAVYYCQNDYSYPYTFGQGTKLEIKGGSGSSGSGGDIVMTQTPLSLSVTPGQPASISCKSSQSLVHNNANTYLSWYLQKPGQSPQSLIYKVSNRFSGVPDRFSGSGSGTDFTLKISRVEAEDVGVYYCGQGTQYPFTFGSGTKVEIKGGSGSSGSGGRTVAAPSVFIFPPSDEQLKSGTASVVCLLNNFYPREAKVQWKVDNALQSGNSQESVTEQDSKDSTYSLSSTLTLSKADYEKHKVYACEVTHQGLSSPVTKSFNRGECDKTHTCPPCPAPEAAGGPSVFLFPPKPKDTLMISRTPEVTCVVVDVSHEDPEVKFNWYVDGVEVHNAKTKPREEQYNSTYRVVSVLTVLHQDWLNGKEYKCKVSNKALPAPIEKTISKAKGQPREPQVYTLPPSRDELTKNQVSLTCLVKGFYPSDIAVEWESNGQPENNYKTTPPVLDSDGSFFLYSKLTVDKSRWQQGNVFSCSVMHEALHNRFTQKSLSLSPG
heavy: not shown
notes: Anti-CD3 (hz20G6) x anti-CD123 (hz7G3) in the CODV-Fab-TL format; IgG1 backbone with LALA mutation; also called hz20G6xhz7G3 CODV-Fab-TL1-RF; PB05126
Take B4: in test [1], the “T cell activation with THP-1 target cells, CD4+ T cells (% CD69+ cells) EC50” value was 0.0032 nM and the “T cell activation with THP-1 target cells, CD8+ T cells (% CD69+ cells) EC50” value is 0.0099 nM. The “Activity - CD4+/CD69+ % Activation C = 100 nM Mean (with THP-1 target cells)” value in test [5] was determined as 75%. Further, in test [2], the “Jurkat-NFAT-Luc reporter cell activation with THP1 cells, EC50” value was 0.444 nM. The “flow cytometry based cytotoxic assay” value in test [6] stood at 0.8 pM. Moreover, in test [3], the “Cytotoxic assay (THP cells) EC50” value turned out to be 0.001 nM. The “Activity - CD8+/CD69+ % Activation C = 100 nM Mean (with THP-1 target cells)” value in test [7] was 78%. Also, binding in [4] was characterised by a dissociation constant (Kd) of 0.2 nM. In [8], this molecule had a Kd of 0.339 nM, a koff of 0.000104 s⁻¹ and a kon of 308000 M⁻¹ s⁻¹. In addition, in test [9], the “T-cell Activation … CD4+/CD69+ EC50 (pM) GMean” value was 0.5 pM and the “T-cell Activation … CD8+/CD69+ EC50 (pM) GMean” value worked out at 0.7 pM.
